This note sets out measurements from article PMC4207998 (The Journal of Biological Chemistry, 2014).

The target in this test is T1, monomeric α-toxin (AT) of Staphylococcus aureus, as crystallised (Staphylococcus aureus subsp. aureus …).
T1 chain: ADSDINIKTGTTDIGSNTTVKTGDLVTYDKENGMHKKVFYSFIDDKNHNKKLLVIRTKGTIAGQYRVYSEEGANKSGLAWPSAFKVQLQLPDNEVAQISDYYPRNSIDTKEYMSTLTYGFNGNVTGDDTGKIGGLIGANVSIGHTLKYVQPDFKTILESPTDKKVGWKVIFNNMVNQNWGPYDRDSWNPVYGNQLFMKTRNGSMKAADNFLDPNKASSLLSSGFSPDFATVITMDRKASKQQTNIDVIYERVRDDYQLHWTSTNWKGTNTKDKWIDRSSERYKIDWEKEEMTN
Kind of test: crystal structure. The following applies: both partners purified.

B1: MEDI4893 Fab (Fab, V domains shown)
VH: EVQLVESGGGLVQPGGSLRLSCAASGFTFSSHDMHWVRQATGKGLEWVSGIGTAGDTYYPDSVKGRFTISRENAKNSLYLQMNSLRAGDTAVYYCARDRYSPTGHYYGMDVWGQGTTVTVSS
VL: DIQMTQSPSTLSASVGDRVTITCRASQSISSWLAWYQQKPGKAPKLLIYKASSLESGVPSRFSGSGSGTEFTLTISSLQPDDFATYYCKQYADYWTFGQGTKVEIK
On to B1, for which the binding result is “binds”.
